According to US20210180067, “NUCLEIC ACID APTAMERS” (UNIVERSITY OF IOWA RESEARCH FOUNDATION, published 2021):

What was measured:
[1] = biological target: T1, CD25 (IL-2 receptor alpha, IL2RA) (Homo sapiens, UniProt P01589 P01589:22-240); assay: pulldown; 100 nM RNA, CD25 Dynabeads, HEPES saline 2 mM CaCl2, BSA, tRNA, 37 C, RT-qPCR; greater than C-248; conditions: tags: His-tag; Thermo Fisher
Description: (§1) Aptamer binding to recombinant CD25 protein or CD25-IL2 receptor-ligand complex-coated Dynabeads was measured as follows. Streptavidin-coated Dynabeads, antibody-coupling kit, and Dynabeads for His-tagged protein binding were obtained from Thermo Fisher. Histidine-tagged recombinant human CD25 (Thermo Fisher, USA) was coated onto His-tag-binding Dynabeads (Thermo Fisher, USA). Protein coated beads were blocked with binding buffer [HEPES-buffered saline with 2 mM CaCl2) containing 0.1 mg/ml BSA and tRNA. In cases where CD25-IL2 complexes were tested, equimolar amounts of IL2 was incubated with CD25-coated beads for 30 minutes at 37 degrees Celsius and the unbound IL2 was washed away. Folded aptamers were then incubated with CD25- or CD25-IL2-coated beads at a concentration of 100 nM for 30 minutes at 37 degrees Celsius under rotation. Beads were then washed thrice with binding buffer at 37 degrees Celsius. Bound RNA aptamers were extracted using Trizol spiked with M12-23 reference control and were quantified using SyBR green-based RT-qPCR assay. The bead-bound SEL2 aptamers were normalized to M12-23 reference control before further analysis. The values obtained for Treg-binding aptamers were normalized to the negative control aptamer, C-248, and plotted. Nucleotides corresponding to the N20 region are underlined and italicized.

CD25 (IL2RA)-IL2 complex [2] = biological target: T2, CD25 (IL2RA)-IL2 complex (Homo sapiens, UniProt P01589;P60568 P01589:22-240,P60568:21-153); assay: pulldown; binding increased vs unoccupied CD25; 2 mM CaCl2, 37 C, RT-qPCR; correlates with IL2 occupancy (R2=0.724); conditions: tags: CD25 His-tagged, Thermo Fisher
Description: as §1

[3] = biological target: T1, CD25 (IL-2 receptor alpha, IL2RA); assay: pulldown; 100 nM RNA, CD25 Dynabeads, 2 mM CaCl2, 37 C, RT-qPCR; greater than C-248; conditions: tags: His-tag; Thermo Fisher
Description: as §1

CD25 (IL2RA)-IL2 complex [4] = biological target: T2, CD25 (IL2RA)-IL2 complex; assay: pulldown; binding increased vs unoccupied CD25; 2 mM CaCl2, 37 C, RT-qPCR; correlates with IL2 occupancy (R2=0.661); conditions: tags: CD25 His-tagged, Thermo Fisher
Description: as §1

[5] = biological target: T1, CD25 (IL-2 receptor alpha, IL2RA); assay: pulldown; negative control used for normalisation; 2 mM CaCl2, 37 C, RT-qPCR; conditions: tags: His-tag; Thermo Fisher
Description: as §1

[6] = biological target: T1, CD25 (IL-2 receptor alpha, IL2RA); assay: pulldown; 100 nM RNA, CD25 Dynabeads, 2 mM CaCl2, 37 C, RT-qPCR; prefers unoccupied CD25; conditions: tags: His-tag; Thermo Fisher
Description: as §1

CD25 (IL2RA)-IL2 complex [7] = biological target: T2, CD25 (IL2RA)-IL2 complex; assay: pulldown; similar binding to unoccupied CD25 and complex; 2 mM CaCl2, 37 C, RT-qPCR; conditions: tags: CD25 His-tagged, Thermo Fisher
Description: as §1

T2 sequence (P01589 22-240, chain 1 of 2): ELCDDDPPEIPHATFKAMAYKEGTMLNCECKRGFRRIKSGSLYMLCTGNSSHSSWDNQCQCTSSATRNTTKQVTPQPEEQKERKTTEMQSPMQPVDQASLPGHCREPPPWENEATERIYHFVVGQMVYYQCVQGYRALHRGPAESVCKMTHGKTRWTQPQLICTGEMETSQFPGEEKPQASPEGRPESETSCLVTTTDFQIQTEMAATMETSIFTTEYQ
T2 sequence (P60568 21-153, chain 2 of 2): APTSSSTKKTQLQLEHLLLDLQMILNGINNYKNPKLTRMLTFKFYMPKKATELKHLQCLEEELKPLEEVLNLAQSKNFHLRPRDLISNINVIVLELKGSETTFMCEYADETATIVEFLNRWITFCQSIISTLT
T1 sequence (P01589 22-240, one chain of several): as the sequence (P01589 22-240, chain 1 of 2) above

B1: Tr-1 (ssRNA)
RNA: GGGAGGACGAUGCGGUCCUGUCGUCUGUUCGUCCCCAGACGACUCGCCCGA
modifications: 2'-F C and U
binding result [1]: binds | binding result (CD25 (IL2RA)-IL2 complex [2]): binds

B2: Tr-7 (ssRNA)
RNA: GGGAGGACGAUGCGGUGAGUCGUUCCCUUCGUCCCCAGACGACUCGCCCGA
modifications: 2'-F C and U
binding result [3]: binds | binding result (CD25 (IL2RA)-IL2 complex [4]): binds

B3: C-248 (ssRNA)
RNA: GGGAGGACGAUGCGGCACACCGAAAUGUCCCGACUCAGACGACUCGCCCGA
modifications: 2'-F C and U
binding result [5]: no binding

B4: Tr-6 (ssRNA)
RNA: GGGAGGACGAUGCGGCGUUUCCUCUGGUUCGUCCCCAGACGACUCGCCCGA
modifications: 2'-F C and U
binding result [6]: binds

B5: Tr-11 (ssRNA)
RNA: GGGAGGACGAUGCGGAUUCUGGUUACUGGCCGCCCCAGACGACUCGCCCGA
modifications: 2'-F C and U
binding result [3]: binds | binding result (CD25 (IL2RA)-IL2 complex [7]): binds

B6: Tr-8 (ssRNA)
RNA: GGGAGGACGAUGCGGGCCGUUGUUGUGUGCCGCCCCAGACGACUCGCCCGA
modifications: 2'-F C and U
binding result [6]: binds
